Experimental data reported in patent publication US20240156870A1 (NATIONAL RESEARCH COUNCIL OF CANADA, published 2024).
Read-outs that look alike come from different tables or passages of the source.

What was measured:
[1] = target: T1, human EGFR-Fc fusion protein (human, UniProt P00533 25-645); experiment: SPR, VHH over human EGFR-Fc;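 note: Single-cycle kinetics on Biacore T200 at 25 °C in HBS-EP, monomeric VHHs at 0.6–50 nM flowed over immobilized EGFR, 180 s association, 600 s dissociation, ethanolamine-blocked reference cell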
T1 construct: Bought; not shown: Fc part of the bought fusion

[2] = target: T1, human EGFR-Fc fusion protein; experiment: SPR single-cycle, VHH over amine-coupled human EGFR-Fc
Experimental: (§1) In the second SPR experiment, single-cycle kinetic analyses were performed on a Biacore™ T200 instrument (GE Healthcare) at 25° C. in HBS-EP buffer. […] An ethanolamine-blocked flow cell served as the reference. Monomeric VHHs at concentrations ranging from 0.6 to 50 nM were injected over the EGFR surfaces in HBS-EP buffer at a flow rate of 40 μL/min. The contact time was 180 s and the dissociation time was 600 s. The EGFR surfaces were regenerated using a 10 s pulse of 10 mM glycine, pH 1.5.

[3] = target: T2, rhesus EGFR-Fc fusion protein (rhesus, UniProt P55245 25-645); experiment: SPR single-cycle, VHH over amine-coupled rhesus EGFR-Fc
T2 construct: Bought; not shown: Fc part of the bought fusion

[4] = target: T2, rhesus EGFR-Fc fusion protein; experiment: as above; remark: listed apart in the source
Experimental: as §1

[5] = target: T3, recombinant 6xHis-tagged human EGFR ectodomain (human, UniProt P00533 25-645); experiment: SPR multi-cycle, EGFR ectodomain over amine-coupled NRC-sdAb032
T3 construct: extracellular domain; Bought; also called recombinant human EGFR; EGFR extracellular domain; not shown: 6xHis tag

[6] = target: T4, mouse EGFR-Fc fusion protein (mouse, UniProt Q01279 25-647); experiment: ELISA, VHH titrated from about 0.5 to 1000 ng/mL, OD 450 nm
T4 construct: Bought; not shown: Fc part of the bought fusion

[7] = target: T3, recombinant 6xHis-tagged human EGFR …; experiment: SPR (value of Table 2 repeated in Table 6)
Experimental: (§2) In the first SPR experiment, multi-cycle kinetic analyses were performed on a Biacore™ 3000 instrument (GE Healthcare) at 25° C. in HBS-EP buffer [10 mM HEPES, pH 7.4, containing 150 mM NaCl, 3 mM EDTA and 0.005% (w/v) surfactant P20]. […] An ethanolamine-blocked flow cell served as the reference. Monomeric VHHs at concentrations ranging from 0.1 to 100 nM were injected over the EGFR and EGFRvIII surfaces in HBS-EP buffer at a flow rate of 20 μL/min. […] Contact times were 180-300 s and dissociation times were 300-600 s.

[8] = target: recombinant human EGFRvIII ectodomain (human) (UniProt P00533); experiment: SPR multi-cycle, VHH over amine-coupled EGFRvIII ectodomain
[9] = target: T4, mouse EGFR-Fc fusion protein; experiment: SPR single-cycle, VHH over amine-coupled mouse EGFR-Fc
Experimental: as §1

[10] = target: T3, recombinant 6xHis-tagged human EGFR …; experiment: SPR multi-cycle, VHH over amine-coupled EGFR ectodomain
Experimental: as §2

[11] = target: T1, human EGFR-Fc fusion protein; experiment: ELISA, VHH titrated from about 0.5 to 1000 ng/mL, OD 450 nm
[12] = target: T2, rhesus EGFR-Fc fusion protein; experiment: as above
[13] = target: T1, human EGFR-Fc fusion protein; experiment: as above; remark: listed apart in the source
[14] = target: T2, rhesus EGFR-Fc fusion protein; experiment: as above; remark: listed apart in the source
[15] = target: T4, mouse EGFR-Fc fusion protein; experiment: as above; remark: listed apart in the source

Kd [1] [nM]	koff [1] [s⁻¹]	kon [1] [M⁻¹ s⁻¹]	Kd [2] [nM]	koff [2] [s⁻¹]	kon [2] [M⁻¹ s⁻¹]	koff [3] [s⁻¹]	kon [3] [M⁻¹ s⁻¹]	Kd [4] [nM]	Kd [8] [nM]	koff [8] [s⁻¹]	kon [8] [M⁻¹ s⁻¹]	Kd [10] [nM]	koff [10] [s⁻¹]	kon [10] [M⁻¹ s⁻¹]	Binder	further results
6.9	0.0025	360000	6.9	0.0025	360000	0.0039	480000	8.1							NRC-sdAb032 (VHH, Monomeric llama VHH; in ELISA a version with biotin acceptor peptide and 6xHis was used; also called EVE46; not shown: C-terminal c-Myc and 6xHis tags) VHH: QVKLEESGGGLVQPGGSLRLSCSASGSISSISVMGWYRQAPGKQRELVARITSGGISNYVDSVKGRFTISGDSAKNIVYLQMNSLKPEDTAVYYCYMYVHVGYWVDYWGQGTQVTVSS	Kd [5]: 12.9 nM; koff [5]: 0.0013 s⁻¹; kon [5]: 100000 M⁻¹ s⁻¹; binding result [6]: no binding (tested: 1000 ng/mL)
6	0.00055	92000	6	0.00055	92000				8.6	0.00084	98000	9	0.00075	84000	NRC-sdAb028 (VHH, Monomeric llama VHH; in ELISA a version with biotin acceptor peptide and 6xHis was used; also called EGFR10; not shown: C-terminal c-Myc and 6xHis tags) VHH: EVQLVESGGGLVQPGGSLRLSCTVSGSFFSRDAMGWHRQAPGKQREMVAGISSGGLSNHAESVKGRFTISRDNSKNTVYLQMNNLKPEDTAVYYCSIYEDGVWTSWGQGTQVTVSS	Kd [7]: 9 nM; Kd [9]: 11.6 nM; koff [9]: 0.0075 s⁻¹; kon [9]: 650000 M⁻¹ s⁻¹; EC50 (read off the curve) [11]: ~7 ng/mL; binding result [12]: no binding (tested: 1000 ng/mL)
8.9	0.0022	250000	8.9	0.0022	250000	0.0017	85000	19.6	2.6	0.00077	290000	1.7	0.00067	400000	NRC-sdAb022 (VHH, Monomeric llama VHH; in ELISA a version with biotin acceptor peptide and 6xHis was used; Stands for the 'NRC-sdAb022-family' in the cross-species and binning sentences; also called EGFR2; NRC-sdAb022-family VHHs; not shown: C-terminal c-Myc and 6xHis tags) VHH: QVQLVESGGGLVQPGGSLKLSCAVSGFAFERNGVSWYRQAPGKQREFVAVISSGTTTYKDSVKGRFTISRDNTRNTAYLQMNNLKPEDTAVYYCNLVPPTPYWGQGTQVTVSS	EC50 (read off the curve) [13]: ~3 ng/mL; EC50 (read off the curve) [14]: ~4 ng/mL; binding result [15]: no binding (tested: 1000 ng/mL)
